Patent publication US20090208454A1 (AMBRX, published 2009)

Biological target: T1, IFNAR2 extracellular domain (UniProt P48551 27-243, limits assumed)
T1 construct: extracellular domain; It was immobilized on a CM5 Biacore chip by lysine-specific coupling; also called IFNAR2ECD; IFNAR ECD
T1 sequence (looked up): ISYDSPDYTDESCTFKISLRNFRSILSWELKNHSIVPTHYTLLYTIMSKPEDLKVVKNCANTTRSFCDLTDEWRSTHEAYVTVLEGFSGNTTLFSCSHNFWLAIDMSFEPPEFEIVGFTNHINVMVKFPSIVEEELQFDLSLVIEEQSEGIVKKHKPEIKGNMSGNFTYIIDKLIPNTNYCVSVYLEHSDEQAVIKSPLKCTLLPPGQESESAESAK
Assay: Biacore SPR, IFNAR2 ECD immobilized on CM5 chip, IFN injected, 1:1 model, average Kd
Method: The refolding reaction was then concentrated to 25 ml using an Amicon stirring cell, and dialyzed overnight against 20 mM Tris, pH 8, 20 mM NaCl, 10% glycerol. Monomeric refolded IFNAR ECD was purified on HP Q Sepharose using the AKTA FPLC system (Amersham). Purified IFNAR2ECD was immobilized on CM5 Biacore chip using a lysine-specific coupling procedure recommended by the manufacturer. About 200 RUs of functional protein were immobilized. Various concentrations of IFN beta variants in HBS-EP buffer (Biacore) were injected at a flow rate of 50 mcl/minute over the flowcell containing immobilized IFNAR2, and a control flowcell containing immobilized bovine serum albumin. Sensograms generated were fit to the 1:1 interaction model to calculate kₒₙ, koff and Kd values using BiaEvaluation software (Biacore).

B1: (C17S)-IFNβ (ligand)
chain: MSYNLLGFLQRSSNFQSQKLLWQLNGRLEYCLKDRMNFDIPEEIKQLQQFQKEDAALTIYEMLQNIFAIFRQDSSSTGWNETIVENLLANVYHQINHLKTVLEEKLEKEDFTRGKLMSSLHLKRYYGRILHYLKAKEYSHCAWTIVRVEILRNFYFINRLTGYLRN
notes: also called IFN beta with C17S substitution; (C17S)-IFN beta
In the case of B1, the Kd is reported as 0.8 nM.
